Results: publication PMC5616090

Legend:
Q99816 [1] = assay: circular dichroism thermal unfolding; conditions: other: circular dichroism thermal unfolding
Q99816 [2] = assay: differential scanning calorimetry; conditions: other: differential scanning calorimetry
[3] = target: Tumor susceptibility gene-101 coiled coil domain (TSG101cc), residues 229-304 (human) (UniProt Q99816); assay: circular dichroism thermal unfolding
[4] = target: Tumor susceptibility gene-101 coiled coil domain (TSG101cc), residues 229-304 (human) (UniProt Q99816); assay: differential scanning calorimetry

Tumor susceptibility gene-101 coiled coil domain (TSG101cc), residues 229-304, sequence (Q99816 2-390): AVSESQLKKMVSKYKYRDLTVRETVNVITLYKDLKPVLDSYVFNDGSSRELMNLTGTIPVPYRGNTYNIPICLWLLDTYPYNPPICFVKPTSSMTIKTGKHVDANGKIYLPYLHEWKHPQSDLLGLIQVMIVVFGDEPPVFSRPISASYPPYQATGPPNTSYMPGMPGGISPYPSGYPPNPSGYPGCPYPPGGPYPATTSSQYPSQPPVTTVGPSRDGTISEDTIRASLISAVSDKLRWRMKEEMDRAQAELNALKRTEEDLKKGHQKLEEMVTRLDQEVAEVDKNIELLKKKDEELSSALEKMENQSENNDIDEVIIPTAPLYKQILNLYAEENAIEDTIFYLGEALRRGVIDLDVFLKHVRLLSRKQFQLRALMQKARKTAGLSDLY

Which results are given for “Tumor susceptibility gene-101 coiled coil domain (TSG101cc), residues 229-304”?
dH (unfolding and dissociation of the tetramer, per mol of monomer) (Q99816 [1]): 56.5 kcal/mol; dH (unfolding and dissociation of the tetramer, per mol of monomer) (Q99816 [2]): 45.6 kcal/mol

With “Tumor susceptibility gene-101 coiled coil domain (TSG101cc), residues 229-304 (from UniProt Q99816 229-304) (domain or fragment)” as the substance, how does the stoichiometry N [3] read?
Its stoichiometry N is 4.

And the stoichiometry N [4]?
The stoichiometry N was 4.
